In the supplement of paper PMC10126150:
± gives the standard deviation of the averaged measurements.

Tested on: ATP
Test: switch fluorescence ratio, 500 uM ATP over buffer (Cy3 cluster intensity, sum of 5 cycles each) (fold (ratio)); higher = stronger signal-on switching upon ATP binding; sequences stand for … in TCGTCGGCAGCGTCAGATGTGTATAAGAGACAGTTTTTTTTTTTTTTTTTTTTTTTTT…TC
Conditions: aptamer strand: ATP DNA aptamer (quencher-CACCTGGGGGAGTATTGCGGAGGAAGG + anchor), 100 nM annealed; ATP concentration: 500 uM
Summary of the method: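 The quencher-labelled ATP aptamer, at 100 nM, was annealed to Cy3-labelled switching-strand clusters on a modified Illumina MiSeq flow-cell. The clusters were imaged in selection buffer, then after 15 min with 500 uM ATP at 22 °C, and this buffer/ATP cycle ran five times with NaOH stripping and re-annealing between runs. Per-cluster fluorescence ratios, summed target-cycle over summed buffer-cycle Cy3 intensity, were averaged per switch-domain sequence. Clusters outside 100-1000 RFU were excluded.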
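Note: ATP exposure 15 min at 22 °C before imaging.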

Sequence	switch fluorescence ratio
GAAGGGGCAA	1.18 ± 0.13
GAAGGGGGAC	1.01 ± 0.046
GAAGGGGGGC	1.05 ± 0.18
GAAGGGGTGT	1.01 ± 0.031
GAAGGTGAGT	1.03 ± 0.014
GAAGGTGATC	1.01 ± 0.012
GAAGGTGTGC	1.07 ± 0.1
GAAGGTTTGT	1.002 ± 0.01
GAAGTAACAG	1.03 ± 0.027
GAAGTAGAGT	0.963 ± 0.028
GAAGTAGCCT	0.9985 ± 0.0086
GAAGTGAGGT	1.01 ± 0.016
GAAGTGCGAG	1.004 ± 0.008
GAAGTGGGGT	0.995 ± 0.015
GAAGTGTGAA	1 ± 0.022
GAAGTTGCCC	0.994 ± 0.028
GAAGTTGGGA	0.9857 ± 0.0095
GAAGTTTGTG	1.019 ± 0.0075
GAAGTTTGTT	0.98 ± 0.026
GAATAAAGTT	0.986 ± 0.046
GAATAAATAG	1 ± 0.024
GAATAACTAG	0.9776 ± 0.0088
GAATAGGGGC	0.965 ± 0.01
GAATATACGC	1.04 ± 0.021
GAATATATGT	1.04 ± 0.028

Sequence	switch fluorescence ratio
GAATATTTTT	1.02 ± 0.034
GAATCAAAAA	1 ± 0.088
GAATCATACA	1.05 ± 0.074
GAATCGTAGC	1 ± 0.022
GAATCGTGAG	0.999 ± 0.04
GAATCTATTC	1.01 ± 0.061
GAATCTTAAA	0.997 ± 0.026
GAATGAAGGT	0.985 ± 0.013
GAATGAGCGT	0.9799 ± 0.003
GAATGAGTTG	0.977 ± 0.02
GAATGCATTT	1.02 ± 0.038
GAATGCGGGC	0.99 ± 0.017
GAATGCTGGT	0.966 ± 0.023
GAATGGATGG	1 ± 0.011
GAATGGGGAT	1.01 ± 0.076
GAATGGGGCC	1.01 ± 0.035
GAATGGGTAA	1.02 ± 0.033
GAATGTATTG	1.013 ± 0.006
GAATGTCTGC	0.99 ± 0.037
GAATGTTAGT	0.964 ± 0.013
GAATTAAATT	1.01 ± 0.018
GAATTAACAA	0.999 ± 0.024
GAATTAATCG	0.988 ± 0.039
GAATTAGAAA	0.999 ± 0.014
GAATTCGATC	1.02 ± 0.029

Sequence	switch fluorescence ratio
GAATTGAGCA	0.996 ± 0.019
GAATTGCTGG	1.01 ± 0.015
GAATTGGCCT	1.02 ± 0.019
GAATTGTGGG	0.989 ± 0.039
GAATTTGGGA	0.997 ± 0.013
GAATTTGTCC	0.988 ± 0.013
GAATTTGTTA	1.026 ± 0.0059
GACAAAAAAA	1.06 ± 0.012
GACAAAACTA	1.16 ± 0.064
GACACACAAA	1.18 ± 0.11
GACACACAAG	1.14 ± 0.016
GACACCAAAT	1.039 ± 0.0035
GACACGGCAT	1.13 ± 0.018
GACACTCAGG	1.083 ± 0.0013
GACAGAGGTT	1 ± 0.021
GACAGATCCC	0.982 ± 0.014
GACAGCTTGG	1.0064 ± 9.5e-05
GACAGGGAAC	1.01 ± 0.021
GACAGGGGCC	0.987 ± 0.018
GACAGGGGCG	1.19 ± 0.16
GACAGGGTTG	1.001 ± 0.0062
GACATCGGCA	1.03 ± 0.016
GACATGTAAA	1.048 ± 0.0023
GACCAGGGAT	1.088 ± 0.0031
GACCAGTAAG	0.9819 ± 0.0091

Sequence	switch fluorescence ratio
GACCCGATTA	1.02 ± 0.034
GACCCGTCAG	1.01 ± 0.013
GACCCTATTC	1.09 ± 0.05
GACCGGGCTT	0.9753 ± 0.0038
GACCGGTGGG	0.9787 ± 0.0065
GACCTATTTC	1.01 ± 0.019
GACCTGGGGC	0.973 ± 0.068
GACGAACCGG	1.051 ± 0.0095
GACGAAGTTT	1.32 ± 0.7
GACGAATCCA	1.03 ± 0.046
GACGACGATG	1.016 ± 0.0022
GACGACGTTG	1.06 ± 0.026
GACGAGTTTT	1.01 ± 0.022
GACGATGGGT	1.029 ± 0.0032
GACGATTCTT	0.97989 ± 0.00092
GACGGATGAC	1.33 ± 0.15
GACGGGAGGG	1.02 ± 0.02
GACGGGATGG	0.993 ± 0.056
GACGGGGACA	1.06 ± 0.023
GACGGGGCAG	0.995 ± 0.015
GACGGGGGCA	0.99948 ± 0.00073
GACGGGGGGT	1 ± 0.041
GACGGGTATA	1.36 ± 0.47
GACGGTAACT	1.14 ± 0.059
GACGGTGGCT	1.01 ± 0.023
